Where a chain is given by its changes, count along the chain named.
Columns and labels:
[1] = biological target: T1, Rat 191P4D12 (on PC3 cells) (rat, UniProt D3ZET1 31-509); experiment: FACS on PC3 cells expressing the rat ortholog
T1 construct: whole, on cells; also called PC3-rat-191P4D12; Rat ortholog
T1 sequence: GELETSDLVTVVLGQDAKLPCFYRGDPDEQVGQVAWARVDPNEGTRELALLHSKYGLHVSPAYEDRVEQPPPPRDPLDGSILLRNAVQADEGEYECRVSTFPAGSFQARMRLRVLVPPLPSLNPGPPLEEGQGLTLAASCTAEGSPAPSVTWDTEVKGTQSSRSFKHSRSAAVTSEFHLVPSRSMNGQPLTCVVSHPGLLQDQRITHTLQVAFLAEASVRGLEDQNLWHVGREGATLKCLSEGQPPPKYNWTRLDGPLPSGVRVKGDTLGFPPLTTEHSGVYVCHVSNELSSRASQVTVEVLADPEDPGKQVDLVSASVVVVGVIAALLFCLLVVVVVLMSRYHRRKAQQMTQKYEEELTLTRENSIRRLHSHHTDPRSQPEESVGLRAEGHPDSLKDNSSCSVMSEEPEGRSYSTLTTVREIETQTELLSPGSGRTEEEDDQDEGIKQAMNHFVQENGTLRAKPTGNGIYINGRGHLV
From the text: (§1) The 191P4D12 protein of human, cynomolgus, rat and murine origin was overexpressed recombinantly in a PC3 cell line to determine cross-reactivity of Ha22-2(2,4)6.1 to these orthologs. It was shown that Ha22-2(2,4)6.1 strongly cross-reacts with cynomolgus and rat orthologs of 191P4D12 (FIG. 23).

[2] = biological target: T2, Cynomolgus 191P4D12 (on PC3 cells) (cynomolgus monkey, UniProt A0A2K5WES1 32-510); experiment: FACS on PC3 cells expressing the cyno ortholog
T2 construct: also called PC3-Cynomolgus-191P4D12; Cyno ortholog
T2 sequence: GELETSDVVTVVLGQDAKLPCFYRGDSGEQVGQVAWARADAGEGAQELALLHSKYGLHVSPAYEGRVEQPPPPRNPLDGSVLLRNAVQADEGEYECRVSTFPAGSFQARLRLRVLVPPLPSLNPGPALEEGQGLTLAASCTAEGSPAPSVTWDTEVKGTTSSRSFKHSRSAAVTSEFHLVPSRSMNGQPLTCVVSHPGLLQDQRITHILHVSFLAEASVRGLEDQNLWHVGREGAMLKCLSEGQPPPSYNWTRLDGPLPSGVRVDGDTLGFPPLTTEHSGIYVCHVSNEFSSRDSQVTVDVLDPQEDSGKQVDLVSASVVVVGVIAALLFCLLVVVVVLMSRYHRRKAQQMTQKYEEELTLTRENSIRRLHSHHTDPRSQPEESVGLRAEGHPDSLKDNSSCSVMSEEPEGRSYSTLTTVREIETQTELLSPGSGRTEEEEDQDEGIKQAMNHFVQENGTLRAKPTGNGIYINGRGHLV
From the text: as §1

[3] = biological target: T3, 191P4D12 (human, wild type, on cells) (human, UniProt Q96NY8 32-510); experiment: FACS titration on PC3 cells expressing 191P4D12
T3 construct: 510 amino acid ORF expressed on PC3, RAT/Rat1(E) cells and present in cancer cell lines and tumor specimens; also called human 191P4D12; wild-type 191P4D12
T3 sequence: T2 sequence with A39V, V230I, T437A

[4] = biological target: T2, Cynomolgus 191P4D12 (on PC3 cells); experiment: FACS titration on PC3 cells expressing the cynomolgus ortholog
[5] = biological target: T3, 191P4D12 (human, wild type, on cells); experiment: FACS titration of Ha22-2(2,4)6.1 on PC3 cells expressing 191P4D12
[6] = biological target: Murine ortholog of 191P4D12, N90S, I75A double mutant (on PC3 cells) (mouse) (UniProt Q8R007); experiment: FACS titration of Ha22-2(2,4)6.1 on PC3 cells expressing mouse 191P4D12 I75A,N90S
[7] = biological target: T4, Murine ortholog of 191P4D12, N90S mutant (on PC3 cells) (mouse, UniProt Q8R007 31-508); experiment: FACS titration of Ha22-2(2,4)6.1 on PC3 cells expressing mouse 191P4D12 N90S
T4 construct: whole, on cells; also called murine mutant ortholog
T4 sequence (looked up): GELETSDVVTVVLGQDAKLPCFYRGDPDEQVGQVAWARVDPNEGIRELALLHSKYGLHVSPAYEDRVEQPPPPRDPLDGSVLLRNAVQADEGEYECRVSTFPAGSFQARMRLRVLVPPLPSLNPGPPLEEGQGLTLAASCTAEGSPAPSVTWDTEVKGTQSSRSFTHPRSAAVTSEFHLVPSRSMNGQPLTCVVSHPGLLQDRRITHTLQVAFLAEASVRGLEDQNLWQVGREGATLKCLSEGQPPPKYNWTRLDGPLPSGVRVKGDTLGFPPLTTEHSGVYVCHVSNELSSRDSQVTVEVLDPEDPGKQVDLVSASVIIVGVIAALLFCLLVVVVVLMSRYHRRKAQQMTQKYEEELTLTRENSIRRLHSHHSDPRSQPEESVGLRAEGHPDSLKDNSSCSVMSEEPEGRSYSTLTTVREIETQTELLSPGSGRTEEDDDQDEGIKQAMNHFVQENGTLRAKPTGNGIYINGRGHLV

EC50 [1]: 0.44 nM | EC50 [2]: 0.3 nM | EC50 (read off the curve) [3]: ~0.4 nM | EC50 (read off the curve) [4]: ~0.3 nM | EC50 (read off the curve) [5]: ~0.6 nM | EC50 (read off the curve) [6]: 0.5 nM | EC50 (read off the curve) [7]: ~0.4 nM
B1: Ha22-2(2,4)6.1 MAb (antibody, human IgG1, kappa, V domains shown)
VH: EVQLVESGGGLVQPGGSLRLSCAASGFTFSSYNMNWVRQAPGKGLEWVSYISSSSSTIYYADSVKGRFTISRDNAKNSLSLQMNSLRDEDTAVYYCARAYYYGMDVWGQGTTVTVSS
VL: DIQMTQSPSSVSASVGDRVTITCRASQGISGWLAWYQQKPGKAPKFLIYAASTLQSGVPSRFSGSGSGTDFTLTISSLQPEDFATYYCQQANSFPPTFGGGTKVEIKR
notes: Fully human IgG1 kappa from XenoMouse; Used biotinylated in the Western blot; also called 191P4D12 MAb Ha22-2(2,4)6.1; Ha22-(2,4)6.1 MAb
